Molecular target: T1, 14-3-3ζ (residues 1-245, 14-3-3ζ-strep, chain of the 14-3-3ζ/ERα^(LBD_F) complex) (human, UniProt P63104 1-245)
T1 sequence: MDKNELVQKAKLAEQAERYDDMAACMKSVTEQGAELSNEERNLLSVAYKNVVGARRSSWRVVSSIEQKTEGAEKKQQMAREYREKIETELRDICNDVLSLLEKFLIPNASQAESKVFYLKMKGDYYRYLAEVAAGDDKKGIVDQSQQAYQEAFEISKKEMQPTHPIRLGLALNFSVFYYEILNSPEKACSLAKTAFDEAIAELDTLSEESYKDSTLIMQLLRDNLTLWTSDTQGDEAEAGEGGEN
Assay: mass photometry

- stoichiometry N: 1 ERα(LBD_F) per 14-3-3ζ (2:2)
B1: ERα^(LBD_F) (ERα residues 302-595, S305A, F591R, P592R, phosphorylated T594) (domain or fragment)
chain: KKNALALSLTADQMVSALLDAEPPILYSEYDPTRPFSEASMMGLLTNLADRELVHMINWAKRVPGFVDLTLHDQVHLLECAWLEILMIGLVWRSMEHPGKLLFAPNLLLDRNQGKCVEGMVEIFDMLLATSSRFRMMNLQGEEFVCLKSIILLNSGVYTFLSSTLKSLEEKDHIHRVLDKITDTLIHLMAKAGLTLQQQHQRLAQLLLILSHIRHMSNKGMEHLYSMKCKNVVPLYDLLLEMLDAHRLHAPTSRGGASVEETDQSHLATAGSTSSHSLQKYYITGEAEGRRATV
modifications: phosphorylated T594 (PKA co-expression)
